Consider one substance from patent US6833355.

For assay [1], the target named is nuclear proteins (mixture of Jurkat nuclear extract proteins purified on protein H-Sepharose). Put plainly: SPR (BIACORE X), protein H over immobilised nuclear proteins; mean ± SD of three experiments.
Assay [2] concerns the target nucleophosmin/B23 (NPM), papain-released material of Jurkat T cell membrane preparations, Mono-Q pool 85-87 (human) (UniProt P06748). Put plainly: Affinity chromatography of 125I-labelled pool 85-87 (run-through of protein A-Sepharose) on protein H-Sepharose.
The target is the same in assay [3]. In words: SPR (BIACORE X), protein H over biotinylated NPM on an avidin chip; mean ± SD of three experiments.

Sequence of protein H of Streptococcus pyogenes, COOH-terminally truncated fragment expressed by and purified from E. coli (305 amino acids) (P50470 42-346): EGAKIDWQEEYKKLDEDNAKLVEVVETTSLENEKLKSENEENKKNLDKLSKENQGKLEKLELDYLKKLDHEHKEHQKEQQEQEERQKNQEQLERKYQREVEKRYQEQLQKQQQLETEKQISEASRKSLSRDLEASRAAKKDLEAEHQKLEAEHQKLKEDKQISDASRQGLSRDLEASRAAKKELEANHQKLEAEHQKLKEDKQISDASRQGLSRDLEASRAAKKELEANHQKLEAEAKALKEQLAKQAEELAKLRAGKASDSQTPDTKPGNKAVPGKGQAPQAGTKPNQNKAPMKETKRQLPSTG
Sequence of nucleophosmin/B23 (NPM), papain-released material of Jurkat T cell membrane preparations, Mono-Q pool 85-87 (human) (P06748 1-147 limits assumed): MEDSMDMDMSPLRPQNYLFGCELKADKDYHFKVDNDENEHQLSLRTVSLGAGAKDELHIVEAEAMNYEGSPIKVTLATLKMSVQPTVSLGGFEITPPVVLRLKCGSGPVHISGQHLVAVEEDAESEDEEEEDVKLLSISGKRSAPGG

With “protein H of Streptococcus pyogenes, COOH-terminally truncated fragment expressed by and purified from E. coli (305 amino acids) (from UniProt P50470 42-346)”, in assay [1], the Ka is 2.62e+07 M⁻¹, the Kd stood at 44 nM, the koff worked out at 6.7e-05 s⁻¹ and the kon came out at 1700 M⁻¹ s⁻¹. In assay [2], the percent of radioactivity bound was over 70%. Besides, in assay [3], the Ka came out at 3.6e+06 M⁻¹, the Kd stood at 286 nM, the koff came out at 0.0019 s⁻¹ and the kon stood at 6700 M⁻¹ s⁻¹.
